The text below walks through data of publication PMC10568284.

For assay [1], the target named is antithrombin (UniProt P01008). The assay is described as follows: SPR. (Surface plasmon resonance follows binding to a sensor surface in real time, without labels.)
For assay [2], the target named is tissue factor pathway inhibitor alpha (human) (UniProt P10646). The assay is described as follows: SPR.
Sequence of UniProt P10646 (P10646 29-304): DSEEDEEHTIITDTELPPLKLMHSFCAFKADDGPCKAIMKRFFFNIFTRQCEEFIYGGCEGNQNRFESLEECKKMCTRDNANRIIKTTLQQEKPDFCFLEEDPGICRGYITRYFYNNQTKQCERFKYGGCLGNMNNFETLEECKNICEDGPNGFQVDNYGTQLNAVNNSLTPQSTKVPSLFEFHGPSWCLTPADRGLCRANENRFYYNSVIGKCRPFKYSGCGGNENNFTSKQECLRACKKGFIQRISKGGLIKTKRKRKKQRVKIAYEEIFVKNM

Sequence of UniProt P01008 (P01008 33-464): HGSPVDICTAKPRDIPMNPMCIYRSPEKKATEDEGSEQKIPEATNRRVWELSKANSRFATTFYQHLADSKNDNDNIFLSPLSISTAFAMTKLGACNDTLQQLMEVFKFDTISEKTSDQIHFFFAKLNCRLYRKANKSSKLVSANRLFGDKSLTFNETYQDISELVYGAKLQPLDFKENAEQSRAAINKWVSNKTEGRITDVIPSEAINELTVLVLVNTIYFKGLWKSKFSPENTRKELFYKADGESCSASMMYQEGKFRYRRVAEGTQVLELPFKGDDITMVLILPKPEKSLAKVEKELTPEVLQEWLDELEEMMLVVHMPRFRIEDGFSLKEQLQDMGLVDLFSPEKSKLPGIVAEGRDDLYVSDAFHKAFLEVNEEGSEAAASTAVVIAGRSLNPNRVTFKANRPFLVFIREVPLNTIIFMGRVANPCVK

Usually Kd stands for a measure of binding affinity in units of concentration. Low values mean tighter binding, high ones weaker binding. With “S195A Gla-domainless factor Xa (from UniProt P00742 82-182; P00742 235-488) (domain or fragment)”, the equilibrium dissociation constant (Kd) was determined as 416 nM in assay [1] and 2 nM in assay [2].
“K96YS195A GD-FXa (from UniProt P00742 82-182; P00742 235-488) (domain or fragment)” had a Kd in assay [1] of 460 nM.
